The chains are these.
B1: F1*; the commonest letter at each place (parent)
chain: GAGACCGCAACTGAAAAGTTGTTATCACTTGTCGTAAGACACTTTGGATGGGTTGAAGTTCTGCACGTAGAAGCAAAAGGC

In this data set the parent is B1. As to the kind of experiment: fraction ligated after 30 min (ligated reads / total reads); higher = more ligase activity. As to conditions: with F1*sub RNA substrate (template-directed ligation), 42 °C. As to the method: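 Chip-synthesised pool of F1* ligase ribozyme variants (all single and double substitutions, single, double and triple deletions in the catalytic core and GAA bulge, plus designed variants) was transcribed with T7 and reacted as a pool with excess substrate F1*sub for 30 min at 42 C in 50 mM EPPS pH 8.5, 25 mM MgCl2. Ligated and unligated bands were separated by PAGE, barcoded by RT and deep sequenced; fraction ligated = ligated reads / total reads per variant, relative activity = FL / FL of wild type (0.826). Sequences are the DNA template of the ribozyme.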
Take GAGACCGCAACTGAAAAGTTGTAATCACTTGTCGTAACACACTTTGGATGGGTTGAAGTTCTGCACGTAGAAGCAAAAGGC: the fraction ligated stood at 0.799.
In the case of GAGACCGCAACTGAAAAGTTGTAATCACTTGTCGTAATACACTTTGGATGGGTTGAAGTTCTGCACGTAGAAGCAAAAGGC it was 0.795; in that of GAGACCGCAACTGAAAAGTTGTAATCACTTGTCGTAAGACACTTTGGATCGGTTGAAGTTCTGCACGTAGAAGCAAAAGGC, 0.255; in that of GAGACCGCAACTGAAAAGTTGTAATCACTTGTCGTAAGACACTTTGGATAGGTTGAAGTTCTGCACGTAGAAGCAAAAGGC, 0.477.
In the case of GAGACCGCAACTGAAAAGTTGTAATCACTTGTCGTAAGACACTTTGGATTGGTTGAAGTTCTGCACGTAGAAGCAAAAGGC it was 0.699; in that of GAGACCGCAACTGAAAAGTTGTCATCACTTGTCGTAAGCCACTTTGGATGGGTTGAAGTTCTGCACGTAGAAGCAAAAGGC, 0.788.
Regarding GAGACCGCAACTGAAAAGTTGTAATCACTTGTCGTAAGACACATTGGATGGGTTGAAGTTCTGCACGTAGAAGCAAAAGGC, the fraction ligated is 0.803.
In the case of GAGACCGCAACTGAAAAGTTGTAATCACTTGTCGTAAGACACGTTGGATGGGTTGAAGTTCTGCACGTAGAAGCAAAAGGC it was 0.81.
As to GAGACCGCAACTGAAAAGTTGTAATCACTTGTCGTAAGACACCTTGGATGGGTTGAAGTTCTGCACGTAGAAGCAAAAGGC, the fraction ligated worked out at 0.783.
As to GAGACCGCAACTGAAAAGTTGTCATCACTTGTCGTGAGACACTTTGGATGGGTTGAAGTTCTGCACGTAGAAGCAAAAGGC, the fraction ligated was determined as 0.817.
GAGACCGCAACTGAAAAGTTGTCATCACTTGTCGTCAGACACTTTGGATGGGTTGAAGTTCTGCACGTAGAAGCAAAAGGC: the fraction ligated was 0.828.
As for GAGACCGCAACTGAAAAGTTGTCATCACTTGTCGTTAGACACTTTGGATGGGTTGAAGTTCTGCACGTAGAAGCAAAAGGC, the fraction ligated was 0.823.
Under GAGACCGCAACTGAAAAGTTGTAATCACTTGACGTAAGACACTTTGGATGGGTTGAAGTTCTGCACGTAGAAGCAAAAGGC stands 0.859; under GAGACCGCAACTGAAAAGTTGTAATCACTTGGCGTAAGACACTTTGGATGGGTTGAAGTTCTGCACGTAGAAGCAAAAGGC, 0.829.
Turning to GAGACCGCAACTGAAAAGTTGTAATCACTTGCCGTAAGACACTTTGGATGGGTTGAAGTTCTGCACGTAGAAGCAAAAGGC, the fraction ligated worked out at 0.771.
For the variant GAGACCGCAACTGAAAAGTTGTCATCACTTGTCGTAAGACACTTTGGATGGGTTGAAGTTCTGCACGTAGAAGCAAAAGGC, the fraction ligated was 0.846.
As to GAGACCGCAACTGAAAAGTTGTAATCACTTGTCGTAAGACACTTAGGATGGGTTGAAGTTCTGCACGTAGAAGCAAAAGGC, the fraction ligated came to 0.373.
In the case of GAGACCGCAACTGAAAAGTTGTAATCACTTGTCGTAAGACACTTGGGATGGGTTGAAGTTCTGCACGTAGAAGCAAAAGGC it was 0.0214.
In the case of GAGACCGCAACTGAAAAGTTGTAATCACTTGTCGTAAGACACTTCGGATGGGTTGAAGTTCTGCACGTAGAAGCAAAAGGC it was 0.222; in that of GAGACCGCAACTGAAAAGTTGTAATCACTTGTCTTAAGACACTTTGGATGGGTTGAAGTTCTGCACGTAGAAGCAAAAGGC, 0.812; in that of GAGACCGCAACTGAAAAGTTGTAATCACTTGTCATAAGACACTTTGGATGGGTTGAAGTTCTGCACGTAGAAGCAAAAGGC, 0.814.
In the case of GAGACCGCAACTGAAAAGTTGTAATCACTTGTCCTAAGACACTTTGGATGGGTTGAAGTTCTGCACGTAGAAGCAAAAGGC it was 0.813.
For the variant GAGACCGCAACTGAAAAGTTGTAATCACTTGTCGTAAGACACTTTGTATGGGTTGAAGTTCTGCACGTAGAAGCAAAAGGC, the fraction ligated turned out to be 0.09.
GAGACCGCAACTGAAAAGTTGTAATCACTTGTCGTAAGACACTTTGAATGGGTTGAAGTTCTGCACGTAGAAGCAAAAGGC: the fraction ligated came to 0.783.
Take GAGACCGCAACTGAAAAGTTGTAATCACTTGTCGTAAGACACTTTGCATGGGTTGAAGTTCTGCACGTAGAAGCAAAAGGC: the fraction ligated turned out to be 0.0295.
GAGACCGCAACTGAAAAGTTGTAAGCACTTGTCGTAAGACACTTTGGATGGGTTGAAGTTCTGCACGTAGAAGCAAAAGGC: the fraction ligated came out at 0.737.
Turning to GAGACCGCAACTGAAAAGTTGTAACCACTTGTCGTAAGACACTTTGGATGGGTTGAAGTTCTGCACGTAGAAGCAAAAGGC, the fraction ligated worked out at 0.762.
On to GAGACCGCAACTGAAAAGTTGTAAACACTTGTCGTAAGACACTTTGGATGGGTTGAAGTTCTGCACGTAGAAGCAAAAGGC, for which the fraction ligated came out at 0.652.
For the variant GAGACCGCAACTGAAAAGTTGTAATCACTTGTCGTAAGACAGTTTGGATGGGTTGAAGTTCTGCACGTAGAAGCAAAAGGC, the fraction ligated was 0.822.
In the case of GAGACCGCAACTGAAAAGTTGTAATCACTTGTCGTAAGACATTTTGGATGGGTTGAAGTTCTGCACGTAGAAGCAAAAGGC it was 0.817; in that of GAGACCGCAACTGAAAAGTTGTAATCACTTGTCGTAAGACAATTTGGATGGGTTGAAGTTCTGCACGTAGAAGCAAAAGGC, 0.817.
As for GAGACCGCAACTGAAAAGTTGTCCTCACTTGTCGTAAGACACTTTGGATGGGTTGAAGTTCTGCACGTAGAAGCAAAAGGC, the fraction ligated turned out to be 0.73.
In the case of GAGACCGCAACTGAAAAGTTGTCGTCACTTGTCGTAAGACACTTTGGATGGGTTGAAGTTCTGCACGTAGAAGCAAAAGGC, the fraction ligated was 0.794.
In the case of GAGACCGCAACTGAAAAGTTGTCTTCACTTGTCGTAAGACACTTTGGATGGGTTGAAGTTCTGCACGTAGAAGCAAAAGGC it was 0.501.

The values above are taken from the supplement of paper PMC6755084.
